Results from patent US20240342199.

Assays:
[1] = biological target: Recombinant CypD Ser123→Ala mutant, P30405
[2] = biological target: Recombinant CypD Ser31/Ser123→Ala double mutant, P30405
[3] = biological target: Recombinant CypD Ser31→Ala mutant, P30405
[4] = biological target: Recombinant GST-CypD (wild type), P30405
Sequence of Recombinant GST-CypD (wild type), P30405 (P30405 whole entry): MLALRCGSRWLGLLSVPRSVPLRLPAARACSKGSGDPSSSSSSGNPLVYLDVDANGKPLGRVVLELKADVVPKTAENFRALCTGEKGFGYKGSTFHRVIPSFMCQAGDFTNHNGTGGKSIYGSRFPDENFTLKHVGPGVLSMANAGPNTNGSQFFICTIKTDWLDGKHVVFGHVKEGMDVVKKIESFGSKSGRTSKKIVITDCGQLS

Sequence of Recombinant CypD Ser123→Ala mutant, P30405 (P30405 whole entry, looked up, change not shown): as the sequence (P30405 whole entry) above
Sequence of Recombinant CypD Ser31/Ser123→Ala double mutant, P30405 (P30405 whole entry, looked up, change not shown): as the sequence (P30405 whole entry) above
Sequence of Recombinant CypD Ser31→Ala mutant, P30405 (P30405 whole entry, looked up, change not shown): as the sequence (P30405 whole entry) above

B1: active Akt2 (protein)
chain: MNEVSVIKEGWLHKRGEYIKTWRPRYFLLKSDGSFIGYKERPEAPDQTLPPLNNFSVAECQLMKTERPRPNTFVIRCLQWTTVIERTFHVDSPDEREEWMRAIQMVANSLKQRAPGEDPMDYKCGSPSDSSTTEEMEVAVSKARAKVTMNDFDYLKLLGKGTFGKVILVREKATGRYYAMKILRKEVIIAKDEVAHTVTESRVLQNTRHPFLTALKYAFQTHDRLCFVMEYANGGELFFHLSRERVFTEERARFYGAEIVSALEYLHSRDVVYRDIKLENLMLDKDGHIKITDFGLCKEGISDGATMKTFCGTPEYLAPEVLEDNDYGRAVDWWGLGVVMYEMMCGRLPFYNQDHERLFELILMEEIRFPRTLSPEAKSLLAGLLKKDPKQRLGGGPSDAKEVMEHRFFLSINWQDVVQKKLLPPFKPQVTSEVDTRYFDDEFTAQSITITPPDRYDSLGLLELDQRTHFPQFSYSASIRE
For B1, the “kinase assay with recombinant proteins, 32P-ATP, autoradiography” value (“kinase assay with recombinant proteins” for short) [1] was “readily phosphorylated”, the “kinase assay with recombinant proteins” value [2] was “abolished Akt phosphorylation of CypD” and the “kinase assay with recombinant proteins” value [3] was “abolished Akt phosphorylation of CypD”. For the same protein, the “kinase assay with recombinant proteins” value [4] was “readily phosphorylated”.
